Measured values reported in US6190920A, “Method for detecting enzyme catalyzed cyclization” (The Regents of the University of California, priority 1997, dated 2001).
Where a name gives a salt, the structure may show the parent alone. Values belong to the compound of their own block, whether it stands above or below them. *1 amine or outer side, *2 acyl side, *3 side chain or, on linkers, in order; H or OH if unused. Where a SMILES comes first, the peptide text is derived from it. Bridges are numbered along the chain shown (N, C = ends). Where no end group is shown, it is not given here. [ ]: non-standard residue; d: D form. The star is where a group is joined. X2 = CCN(CCN([C@@H](Cc1ccc(O)cc1)C(=O)[*:2])[*:1])c1ccc(N=Nc2ccc([N+](=O)[O-])cc2)cc1; X1 = NC(=O)CCCC(=O)*

How the values were obtained:
Type in all cases: biochemical, bovine
Trypsin [1] = target: T1, Trypsin (Bos taurus, UniProt P00760); assay: Trypsin-catalyzed cyclization of acyclic compound, products determined; conditions: 30:30:40 DMF/ethanol/pH 6.5 Tris buffer
T1 construct: Trypsin (from bovine pancrease, Type I, ethanol precipitate); purchased Sigma Type I (catalogue number not given); host or cells: bovine pancreas
T1 sequence (P00760 24-246): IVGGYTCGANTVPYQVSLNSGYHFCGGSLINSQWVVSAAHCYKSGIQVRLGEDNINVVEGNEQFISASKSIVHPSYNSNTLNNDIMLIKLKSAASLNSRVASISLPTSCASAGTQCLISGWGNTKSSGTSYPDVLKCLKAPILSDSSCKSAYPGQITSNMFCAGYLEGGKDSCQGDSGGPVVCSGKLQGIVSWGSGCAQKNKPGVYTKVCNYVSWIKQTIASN
Experimental: The structure was determined conventionally.
The compound of Formula III SEQ ID NO: 1 where L is a resin linker was treated in the same manner, and the resin component removed. […] Therefore the material on the resin is accessible to the enzyme. A control experiment without the enzyme gave only starting material.
(§1) Reagents and solvents were obtained from commercial suppliers and used as received. Trypsin (from bovine pancrease, Type I, ethanol precipitate) and N-α-benzoyl-L-arginine-p-nitroanilide, hydrochloride were obtained from Sigma®. All moisture- or air-sensitive reactions were conducted under nitrogen in dried solvents. Unless otherwise indicated, chromatography was performed on silica gel with the indicated solvent as eluant. […]

Trypsin [2] = target: T1, Trypsin; assay: Trypsin assay (L-BAPNA hydrolysis, absorbance at 410 nm); conditions: 5% DMSO
Experimental: as §1
All assays were performed at 37° C. on a Kontron Uvikon 860 UV-Vis spectrophotmeter. The forward reaction rate was measured by monitoring the absorbance change at 410 nm of the para-nitroanilide produced ( e=8800 M^-1 cm^-1 at 410 nm) at 30 sec intervals for 15 min. The concentrations of inhibitor solutions were determined spectrophotometrically from Disperse Red 1's extinction coefficient of 15,562 M^-1 cm^-1 at 490 nm. […] Inhibition constants (Ki 's) were determined from the slope of the V0 /v vs. [inhibitor] plots where the slope=1/Ki (1 +[L-BAPNA]/Km) and Km =2.0 +/-0.3 mM, V0 =rate in the absence of inhibitor and v=rate in the presence of inhibitor. […]

Trypsin [3] = target: T1, Trypsin; assay: Dye retention on resin after trypsin treatment and cleavage of ester X; conditions: trypsin in 30:30:40 DMF/ethanol/pH 6.5 Tris buffer, then 1:1 methanol/1M sodium hydroxide, filtered and washed
Excerpt: The compound of formula (3) is soluble; the compounds of formula (4) and (5) are not, as a consequence of their attachment to a resin. Therefore, whether or not cyclization has taken place, a solid insoluble product will remain, which can be filtered off and purified by washing. However, if cyclization has taken place and a product of formula (5) has been formed, the dye will still be attached to the resin, which consequently is visibly colored, or is visible under UV or by fluorescence, depending upon the dye used. If cyclization has not taken place and products of formula (3) and (4) have been formed, the dye will be seen in the filtrate and the insoluble resin material will be colorless.
The specific analogs that afford positive results in this screen may be then identified by conventional analysis of the material that is isolated from the resin beads by cleaving the bond linking the material to the resin beads. […]

- cyclization by trypsin (Trypsin [1]): readily cyclized
Compound: O-{N-[L-serinyl-L-leucyl]-N-[(4-nitrophenylazo)-2-aminophenylethyl-N-ethyl]-L-tyrosinyl-L-valinyl}-N-(glutaryl carboxamide)-L-threonyl-L-arginine, Methyl Ester (SLYVTR-OMe; also: depsipeptide: Val ester-linked to Thr side-chain O, Tyr N-substituted with (4-nitrophenylazo)-2-aminophenylethyl-N-ethyl azo dye, Thr N-acylated with glutaryl carboxamide) [Ser--Leu--N(dye)--Tyr--Val--O--Thr(NH--C(O)--(CH2)3 CONH--L)--Arg--OR, R methyl, L hydrogen]

- Ki (Trypsin [2]; 37° C., 100 mM TRIS/10 mM CaCl2 pH=8.0, substrate L-BAPNA, average value of 3 separate determinations, read-out: inhibition constant Ki): 230 nM
Compound: CCN(CCN1C(=O)[C@H](CC(C)C)NC(=O)[C@H](CO)NC(=O)[C@H](CCCNC(=N)N)NC(=O)[C@@H](NC(=O)CCCC(N)=O)[C@@H](C)OC(=O)[C@H](C(C)C)NC(=O)[C@@H]1Cc1ccc(O)cc1)c1ccc(N=Nc2ccc([N+](=O)[O-])cc2)cc1 [macrocyclic analog] (X1-TRSL[X2]V; ester 1-C)

Compound: NC(N)=NCCCC(NC(=O)c1ccccc1)C(=O)Nc1ccc([N+](=O)[O-])cc1 [L-BAPNA, N-α-benzoyl-L-arginine-p-nitroanilide, hydrochloride, reference compound]
- Km (Trypsin [2]; 100 mM TRIS/10 mM CaCl2 (pH=8.0), Lineweaver-Burke and non-linear regression of initial rates): 2000 ± 300 µM

- cyclization by trypsin (Trypsin [1]): The same products A and B were obtained
- retention of dye colour on resin (Trypsin [3]): The color was retained on the resin
Compound: O-{N-[L-Serinyl-L-leucyl]-N-[(4-nitrophenylazo)-2-aminophenylethyl-N-ethyl]-L-tyrosinyl-L-valinyl}-N-(glutaryl-photolinker-Tentagel-amide)-L-threonyl-L-arginine, Methyl Ester (SLYVTR-OMe; also: Tyr3 N-substituted with (4-nitrophenylazo)-2-aminophenylethyl-N-ethyl group, Val4-Thr5 ester bond via Thr side-chain OH, backbone changed)
